Measurements as given in patent publication US20210255185A1.

How the values were obtained:
[1] = biological target: human survival motor neuron (SMN1) protein (human) (UniProt Q16637); experiment: immunofluorescence, cells transduced with AAV9-SMN1 at MOI 18750, well 1
[2] = biological target: methyl cytosine binding protein 2 (MeCP2); experiment: immunofluorescence, cells transduced with AAV9-MECP2 at MOI 300000, well 2 (background level)
[3] = biological target: human survival motor neuron (SMN1) protein (human) (UniProt Q16637); experiment: immunofluorescence, fixed/permeabilised mTD-NPC-delta7 cells transduced with AAV9-SMN1 at MOI 300000, well 1
[4] = biological target: methyl cytosine binding protein 2 (MeCP2); experiment: immunofluorescence, cells transduced with AAV9-MECP2 at MOI 18750, well 1 (background level)
[5] = biological target: human survival motor neuron (SMN1) protein (human) (UniProt Q16637); experiment: immunofluorescence, cells transduced with AAV9-SMN1 at MOI 75000, well 2
[6] = biological target: methyl cytosine binding protein 2 (MeCP2); experiment: immunofluorescence, cells transduced with AAV9-MECP2 at MOI 75000, well 1 (background level)
[7] = biological target: methyl cytosine binding protein 2 (MeCP2); experiment: immunofluorescence, cells transduced with AAV9-MECP2 at MOI 150000, well 1 (background level)
[8] = biological target: methyl cytosine binding protein 2 (MeCP2); experiment: immunofluorescence, cells transduced with AAV9-MECP2 at MOI 75000, well 2 (background level)
[9] = biological target: human survival motor neuron (SMN1) protein (human) (UniProt Q16637); experiment: immunofluorescence, cells transduced with AAV9-SMN1 at MOI 75000, well 1
[10] = biological target: human survival motor neuron (SMN1) protein (human) (UniProt Q16637); experiment: immunofluorescence, cells transduced with AAV9-SMN1 at MOI 18750, well 2
[11] = biological target: methyl cytosine binding protein 2 (MeCP2); experiment: immunofluorescence, cells transduced with AAV9-MECP2 at MOI 37500, well 2 (background level)
[12] = biological target: methyl cytosine binding protein 2 (MeCP2); experiment: immunofluorescence, cells transduced with AAV9-MECP2 at MOI 37500, well 1 (background level)
[13] = biological target: human survival motor neuron (SMN1) protein (human) (UniProt Q16637); experiment: immunofluorescence, cells transduced with AAV9-SMN1 at MOI 37500, well 1
[14] = biological target: human survival motor neuron (SMN1) protein (human) (UniProt Q16637); experiment: immunofluorescence, fixed/permeabilised mTD-NPC-delta7 cells transduced with AAV9-SMN1 at MOI 300000, well 2
[15] = biological target: human survival motor neuron (SMN1) protein (human) (UniProt Q16637); experiment: immunofluorescence, cells transduced with AAV9-SMN1 at MOI 150000, well 2
[16] = biological target: methyl cytosine binding protein 2 (MeCP2); experiment: immunofluorescence, cells transduced with AAV9-MECP2 at MOI 300000, well 1 (background level)
[17] = biological target: methyl cytosine binding protein 2 (MeCP2); experiment: immunofluorescence, cells transduced with AAV9-MECP2 at MOI 18750, well 2 (background level)
[18] = biological target: human survival motor neuron (SMN1) protein (human) (UniProt Q16637); experiment: immunofluorescence, cells transduced with AAV9-SMN1 at MOI 150000, well 1
[19] = biological target: methyl cytosine binding protein 2 (MeCP2); experiment: immunofluorescence, cells transduced with AAV9-MECP2 at MOI 150000, well 2 (background level)
[20] = biological target: human survival motor neuron (SMN1) protein (human) (UniProt Q16637); experiment: immunofluorescence, cells transduced with AAV9-SMN1 at MOI 37500, well 2

Chain of UniProt Q16637 (Q16637 2-294 limits assumed): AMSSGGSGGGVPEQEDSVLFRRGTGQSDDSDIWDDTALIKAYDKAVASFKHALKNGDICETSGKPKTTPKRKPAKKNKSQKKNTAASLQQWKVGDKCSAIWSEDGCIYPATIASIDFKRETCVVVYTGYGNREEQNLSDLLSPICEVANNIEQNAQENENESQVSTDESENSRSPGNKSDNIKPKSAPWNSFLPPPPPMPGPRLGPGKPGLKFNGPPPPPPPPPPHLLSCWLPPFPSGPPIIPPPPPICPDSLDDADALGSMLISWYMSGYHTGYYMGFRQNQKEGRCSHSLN

Work on “mouse monoclonal anti-SMN antibody (Clone 2B1)” yielded an IFI-C (integrated fluorescent intensity per cell) [1] of 1.46e+06, an IFI-C (integrated fluorescent intensity per cell) [2] of 875000 and an IFI-C (integrated fluorescent intensity per cell) [3] of 3.43e+06. It also gave an IFI-C (integrated fluorescent intensity per cell) [4] of 720000, an IFI-C (integrated fluorescent intensity per cell) [5] of 2.46e+06 and an IFI-C (integrated fluorescent intensity per cell) [6] of 837000. The IFI-C (integrated fluorescent intensity per cell) [7] was 886000, the IFI-C (integrated fluorescent intensity per cell) [8] was 860000 and the IFI-C (integrated fluorescent intensity per cell) [9] was 2.34e+06. For the same substance, the IFI-C (integrated fluorescent intensity per cell) [10] was 1.51e+06, the IFI-C (integrated fluorescent intensity per cell) [11] was 817000 and the IFI-C (integrated fluorescent intensity per cell) [12] was 809000. For the same substance, the IFI-C (integrated fluorescent intensity per cell) [13] was 1.87e+06, the IFI-C (integrated fluorescent intensity per cell) [14] was 3.27e+06 and the IFI-C (integrated fluorescent intensity per cell) [15] was 3.02e+06. For the same substance, the IFI-C (integrated fluorescent intensity per cell) [16] was 867000, the IFI-C (integrated fluorescent intensity per cell) [17] was 759000 and the IFI-C (integrated fluorescent intensity per cell) [18] was 2.87e+06. The IFI-C (integrated fluorescent intensity per cell) [19] was 839000 and the IFI-C (integrated fluorescent intensity per cell) [20] was 1.86e+06.
